Measured values as given in US9890409B2, “Composition for astringin product” (INDUSTRY FOUNDATION OF CHONNAM NATIONAL UNIVERSITY, priority 2015, dated 2018).

Assay: Oxidation of polydatin to astringin (3′-hydroxylation), steady-state kinetics by HPLC
Format: biochemical
Conditions: polydatin as substrate, NADPH-generating system, 37° C., 30 minutes, 100 mM potassium phosphate buffer pH 7.4
Method: P450 BM3 50 pmol and […] of polydatin as a substrate were added to 0.25 ml of 100 mM potassium phosphate buffer (pH 7.4) to perform a typical steady-state reaction. In order to start the reaction, the NADPH-generating system (10 mM glucose 6-phosphate, 0.5 mM NADP^+ and 1 IU yeast glucose 6-phosphate-dihydrogenase per 1 ml of final concentration) was added. 20 mM polydatin solution was prepared with DMSO, and diluted with an enzyme reaction solution, thereby preparing a reaction mixture so that the final organic solvent has a concentration of 1%/(v/v) or less. The solution was reacted at 37° C. for 30 minutes, and the reaction was terminated with ethyl-acetate which is cooled by using ice with twice amount.
The reaction mixture was centrifuged, the supernatant was […]. Then, the solvent was evaporated under a nitrogen gas, and analyzed by HPLC. A sample (30 μl) was injected into Gemini C18 column (4.6 mm×150 mm, 5 μm, Phenomenex, Torrance, Calif.). […] The mobile phase flowed at a rate of 1 ml/minute and an eluent was measured by 320 nm of UV.
In order to examine whether polydatin is oxidized by CYP102A1(P450 BM3), oxidativity of polydatin was measured at a substrate concentration fixed to be 1000 μM in the P450 wild-type CYP102A1, the CYP102A1 mutant, the CYP102A1 chimera, and the mutant of CYP102A1 chimera. […]

B1: M16V3: chimera protein: heme domain of CYP102A1 Mutant#16 (R47L/F81I/F87V/E143G/L188Q/E267V) fused with reductase domain of natural variant CYP102A1.3 (protein)
chain: TIKEMPQPKTFGELKNLPLLNTDKPVQALMKIADELGEIFKFEAPGLVTRYLSSQRLIKEACDESRFDKNLSQALKFVRDFAGDGIVTSWTHEKNWKKAHNILLPSFSQQAMKGYHAMMVDIAVQLVQKWERLNADEHIEVPGDMTRLTLDTIGLCGFNYRFNSFYRDQPHPFITSMVRALDEAMNKQQRANPDDPAYDENKRQFQEDIKVMNDLVDKIIADRKASGEQSDDLLTHMLNGKDPETGEPLDDENIRYQIITFLIAGHVTTSGLLSFALYFLVKNPHVLQKAAEEAARVLVDPVPSYKQVKQLKYVGMVLNEALRLWPTAPAFSLYAKEDTVLGGEYPLEKGDELMVLIPQLHRDKTIWGDDVEEFRPERFENPSAIPQHAFKPFGNGQRACIGQQFALHEATLVLGMMLKHFDFEDHTNYELDIKETLTLKPEGFVVKAKSKKIPLGGIPSPSTEQSAKKVRKKVENAHNTPLLVLYGSNMGTAEGTARDLADIAMSKGFAPQVATLDSHAGNLPREGAVLIVTASYNGHPPDNAKQFVDWLDQASADDVKGVRYSVFGCGDKNWATTYQKVPAFIDETLAAKGAENIADRGEADASDDFEGTYEEWREHMWSDVAAYFNLDIENSEDNKSTLSLQFVDSAADMPLAKMHGAFSANVVASKELQQLGSERSTRHLEIALPKEASYQEGDHLGVIPRNYEGIVNRVTARFGLDASQQIRLEAEEEKLAHLPLGKTVSVEELLQYVELQDPVTRTQLRAMAAKTVCPPHKVELEALLEKQAYKEQVLAKRLTMLELLEKYPACEMEFSEFIALLPSISPRYYSISSSPHVDEKQASITVSVVSGEAWSGYGEYKGIASNYLANLQEGDTITCFVSTPQSGFTLPKDSETPLIMVGPGTGVAPFRGFVQARKQLKEQGQSLGEAHLYFGCRSPHEDYLYQEELENAQNEGIITLHTAFSRVPNQPKTYVQHVMERDGKKLIELLDQGAHFYICGDGSQMAPDVEATLMKSYADVYEVSEADARLWLQQLEEKGRYAKDVWAG
modifications: CYP102A1 chimeric protein M16V3 aa seq
In the case of B1, the “kcat, astringin formation” value is reported as 0.00417 ± 0.0005 s⁻¹ and the Km (read-out: Km, astringin formation) is reported as 390 ± 111 µM.
